By Kd is commonly meant a measure of binding affinity in units of concentration.

B2: purified recombinant human CCL21 (Chemicon) (ligand, UniProt O00585 24-134, looked up)
chain: SDGGAQDCCLKYSQRKIPAKVVRSYRKQEPSLGCSIPAILFLPRKRSQAELCADPKELWVQQLMQHLDKTPSPQKPAQGCRKDRGASKTGKKGKGSKGCKRTERSQTPKGP

For experiment [1], the target named is B2. Kind of experiment: SPR. On the technique in general: Surface plasmon resonance follows binding to a sensor surface in real time, without labels.
Experiment [2] has as its target T1, THAP1(1-213)-Fc fusion protein (human, UniProt Q9NVV9 1-213).
T1 sequence (looked up): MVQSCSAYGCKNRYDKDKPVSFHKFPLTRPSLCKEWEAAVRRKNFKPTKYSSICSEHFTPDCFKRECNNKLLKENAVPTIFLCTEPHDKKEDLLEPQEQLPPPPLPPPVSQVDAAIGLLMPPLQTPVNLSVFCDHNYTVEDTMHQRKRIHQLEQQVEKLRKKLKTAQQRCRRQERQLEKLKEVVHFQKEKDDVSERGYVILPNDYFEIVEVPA
Kind of experiment: SPR.

B1: Chemotrap-1 (THAP1(140-213)-Fc), purified from CHO cells (Fc fusion, human, UniProt Q9NVV9 140-213, looked up)
chain: EDTMHQRKRIHQLEQQVEKLRKKLKTAQQRCRRQERQLEKLKEVVHFQKEKDDVSERGYVILPNDYFEIVEVPA
Turning to B1, in experiment [1], the Kd is 102 nM. B2 showed a Kd in experiment [2] of 87 nM.

The values above are taken from article PMC3034641 (Cancer research, 2010).
